Target: Elongation Factor 1 alpha (EF1α), endogenous in rat liver lysosomes (rat (endogenous in rat liver)) (UniProt P62630)
Assay: co-IP

Chain of UniProt P62630 (P62630 whole entry): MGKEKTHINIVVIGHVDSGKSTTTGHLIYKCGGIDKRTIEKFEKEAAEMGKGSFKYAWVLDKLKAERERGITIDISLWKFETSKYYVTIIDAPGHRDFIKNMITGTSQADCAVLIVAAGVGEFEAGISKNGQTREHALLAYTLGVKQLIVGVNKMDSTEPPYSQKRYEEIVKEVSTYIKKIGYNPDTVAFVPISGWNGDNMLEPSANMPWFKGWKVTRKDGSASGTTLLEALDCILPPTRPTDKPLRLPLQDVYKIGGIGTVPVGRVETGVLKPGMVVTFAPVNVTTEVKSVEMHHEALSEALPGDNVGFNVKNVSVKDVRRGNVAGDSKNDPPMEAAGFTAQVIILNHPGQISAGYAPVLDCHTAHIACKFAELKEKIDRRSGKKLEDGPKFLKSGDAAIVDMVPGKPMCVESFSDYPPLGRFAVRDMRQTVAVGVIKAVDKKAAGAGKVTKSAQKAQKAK

glial fibrillary acidic protein (GFAP), endogenous in rat liver lysosomes (from UniProt P47819 1-430) (natural protein)
decrease of GFAP co-immunoprecipitated with EF1α upon addition of GTP: 47.2%

— publication PMC2945256
